Measurements as given in article PMC5342210, “Staphylococcal protein Ecb impairs complement receptor-1 mediated recognition of opsonized bacteria” (PLoS ONE, 2017).

Assays:
C3b [1] = biological target: C3b (UniProt P01024); test: radioligand binding; C3b (5 ug/ml) coated on microtiter wells, blocked with 0.5% BSA; 125I-sCR1 (30,000 cpm) mixed with the unlabelled protein (0-0.33 uM) in 1/2 PBS with 0.1% BSA; 60 min, 37 C; bound radioactivity counted
C3b [2] = biological target: T1, C3b (UniProt P01024); test: as above; settings: both partners purified
T1 construct: complement C3 beta chain, as it stands in C3b; alpha'-chain of C3b, the cut product of the C3 alpha chain (here made with trypsin); the C3b was detected with anti-human C3 and anti-human C3c antibodies; also called solid-phase C3b; source: C3 purified from plasma; C3b prepared from C3 using trypsin

“Extracellular complement binding protein (Ecb) (natural protein)” showed a percent inhibition of sCR1 binding to C3b (C3b [1]) of 80%.

B1: Factor H (FH) (natural protein)
chain: EDCNELPPRRNTEILTGSWSDQTYPEGTQAIYKCRPGYRSLGNVIMVCRKGEWVALNPLRKCQKRPCGHPGDTPFGTFTLTGGNVFEYGVKAVYTCNEGYQLLGEINYRECDTDGWTNDIPICEVVKCLPVTAPENGKIVSSAMEPDREYHFGQAVRFVCNSGYKIEGDEEMHCSDDGFWSKEKPKCVEISCKSPDVINGSPISQKIIYKENERFQYKCNMGYEYSERGDAVCTESGWRPLPSCEEKSCDNPYIPNGDYSPLRIKHRTGDEITYQCRNGFYPATRGNTAKCTSTGWIPAPRCTLKPCDYPDIKHGGLYHENMRRPYFPVAVGKYYSYYCDEHFETPSGSYWDHIHCTQDGWSPAVPCLRKCYFPYLENGYNQNYGRKFVQGKSIDVACHPGYALPKAQTTVTCMENGWSPTPRCIRVKTCSKSSIDIENGFISESQYTYALKEKAKYQCKLGYVTADGETSGSITCGKDGWSAQPTCIKSCDIPVFMNARTKNDFTWFKLNDTLDYECHDGYESNTGSTTGSIVCGYNGWSDLPICYERECELPKIDVHLVPDRKKDQYKVGEVLKFSCKPGFTIVGPNSVQCYHFGLSPDLPICKEQVQSCGPPPELLNGNVKEKTKEEYGHSEVVEYYCNPRFLMKGPNKIQCVDGEWTTLPVCIVEESTCGDIPELEHGWAQLSSPPYYYGDSVEFNCSESFTMIGHRSITCIHGVWTQLPQCVAIDKLKKCKSSNLIILEEHLKNKKEFDHNSNIRYRCRGKEGWIHTVCINGRWDPEVNCSMAQIQLCPPPPQIPNSHNMTTTLNYRDGEKVSVLCQENYLIQEGEEITCKDGRWQSIPLCVEKIPCSQPPQIEHGTINSSRSSQESYAHGTKLSYTCEGGFRISEENETTCYMGKWSSPPQCEGLPCKSPPEISHGVVAHMSDSYQYGEEVTYKCFEGFGIDGPAIAKCLGEKWSHPPSCIKTDCLSLPSFENAIPMGEKKDVYKAGEQVTYTCATYYKMDGASNVTCINSRWTGRPTCRDTSCVNPPTVQNAYIVSRQMSKYPSGERVRYQCRSPYEMFGDEEVMCLNGNWTEPPQCKDSTGKCGPPPPIDNGDITSFPLSVYAPASSVEYQCQNLYQLEGNKRITCRNGQWSEPPKCLHPCVISREIMENYNIALRWTAKQKLYSRTGESVEFVCKRGYRLSSRSHTLRTTCWDGKLEYPTCAKR
notes: complement factor H, plasma regulator; source: purified from plasma
B1: binds (C3b [2]).
